The record followed here is patent US20260242419A1, “A CYCLIC PEPTIDE FOR TRAPPING INTERLEUKIN-1 BETA” (Merck Sharp & Dohme LLC, priority 2023, published 2026).

This experiment has as its target Recombinant human IL-1β (BioLegend 579404) (human, UniProt P01584 117-269). Kind of experiment: cell-based or functional assay.

Starred links: 1 amine or outer side, 2 acyl side, 3 side chain; linkers in the order of their positions; H or OH if unused. Non-standard residues stand in square brackets, D forms with d. daMeSMe = (2R)-2-amino-3-methoxy-2-methyl-propanoic acid, COC[C@@](C)(N[*:1])C(=O)[*:2]; alTOMe = (2S,3S)-2-amino-3-methoxy-butanoic acid, CO[C@@H](C)[C@H](N[*:1])C(=O)[*:2]; ThrOMe = (2S,3R)-2-amino-3-methoxy-butanoic acid, CO[C@H](C)[C@H](N[*:1])C(=O)[*:2]; dPro(4R-(4-pyridylmethyl)) = O=C(O)[C@H]1C[C@@H](Cc2ccncc2)CN1; Trp(βS-Me,4-F) = C[C@@H](c1c[nH]c2cccc(F)c12)[C@H](N)C(=O)O; Bip(4'-COOH) = N[C@@H](Cc1ccc(-c2ccc(C(=O)O)cc2)cc1)C(=O)O; Trp(4-Cl) = N[C@@H](Cc1c[nH]c2cccc(Cl)c12)C(=O)O; Ala(pyrimidin-5-yl) = N[C@@H](Cc1cncnc1)C(=O)O; Phe(4-COOH) = N[C@@H](Cc1ccc(C(=O)O)cc1)C(=O)O; Trp(4-F) = N[C@@H](Cc1c[nH]c2cccc(F)c12)C(=O)O; Bip = N[C@@H](Cc1ccc(-c2ccccc2)cc1)C(=O)O; Pro(cis-4-F) = O=C(O)[C@@H]1C[C@H](F)CN1; d(αMeF) = C[C@@](N)(Cc1ccccc1)C(=O)O; Dap(CONH2) = NC(=O)NC[C@H](N)C(=O)O; hTyr = N[C@@H](CCc1ccc(O)cc1)C(=O)O; d(αMeD) = C[C@@](N)(CC(=O)O)C(=O)O; 4Pal = N[C@@H](Cc1ccncc1)C(=O)O; aThr = C[C@H](O)[C@H](N)C(=O)O; dOrn = NCCC[C@@H](N)C(=O)O; dDab = NCC[C@@H](N)C(=O)O; dDap = NC[C@@H](N)C(=O)O; Dab = NCC[C@H](N)C(=O)O; Nva = CCC[C@H](N)C(=O)O; Aib = CC(C)(N)C(=O)O

B1: SEQ ID NO 250 (peptide)
peptide: cyclo([Bip][4Pal][Phe(4-COOH)]G[Pro(cis-4-F)][Trp(βS-Me,4-F)][Aib]SW[Aib][dE]Q[Dab]G[dPro(4R-(4-pyridylmethyl))])
modifications: ring closure inferred
As for B1, the “MRC5 IC50” value was found to be 0.027 nM.

B2: SEQ ID NO 256 (peptide)
peptide: cyclo([Bip(4'-COOH)][4Pal][Phe(4-COOH)]G[Pro(cis-4-F)][Trp(βS-Me,4-F)][Aib]SW[d(αMeD)][hTyr]Q[Dab]G[dPro(4R-(4-pyridylmethyl))])
modifications: ring closure inferred
B2: the “MRC5 IC50” value turned out to be 0.012 nM.

B3: SEQ ID NO 257 (peptide)
peptide: cyclo([Bip(4'-COOH)][4Pal][Phe(4-COOH)]G[Pro(cis-4-F)][Trp(βS-Me,4-F)][Aib]SW[d(αMeF)][aThr]Q[Dab]G[dPro(4R-(4-pyridylmethyl))])
modifications: ring closure inferred
As for B3, the “MRC5 IC50” value was 0.021 nM.

B4: SEQ ID NO 258 (peptide)
peptide: cyclo([Bip(4'-COOH)][4Pal][Phe(4-COOH)]G[Pro(cis-4-F)][Trp(βS-Me,4-F)][Aib]SW[d(αMeF)]EQ[Dab]G[dPro(4R-(4-pyridylmethyl))])
modifications: ring closure inferred
B4: the “MRC5 IC50” value came out at 0.02 nM.

B5: SEQ ID NO 254 (peptide)
peptide: cyclo([Bip(4'-COOH)][4Pal][Phe(4-COOH)]G[Pro(cis-4-F)][Trp(βS-Me,4-F)][Aib]SW[d(αMeD)][alTOMe]Q[Dab]G[dPro(4R-(4-pyridylmethyl))])
modifications: ring closure inferred
As to B5, the “MRC5 IC50” value was 0.013 nM.

B6: SEQ ID NO 245 (peptide)
peptide: cyclo([Bip][4Pal][Phe(4-COOH)]G[Pro(cis-4-F)][Trp(βS-Me,4-F)][Aib]SW[d(αMeD)][dOrn]Q[Dap(CONH2)]G[dPro(4R-(4-pyridylmethyl))])
modifications: ring closure inferred
As for B6, the “MRC5 IC50” value was 0.027 nM.

B7: SEQ ID NO 243 (peptide)
peptide: cyclo([Bip(4'-COOH)][4Pal][Phe(4-COOH)]G[Pro(cis-4-F)][Trp(βS-Me,4-F)][Aib]SW[d(αMeD)][dF]Q[Dab]G[dPro(4R-(4-pyridylmethyl))])
modifications: ring closure inferred
As for B7, the “MRC5 IC50” value stood at 0.022 nM.

B8: SEQ ID NO 251 (peptide)
peptide: cyclo([Bip(4'-COOH)][4Pal][Phe(4-COOH)]G[Pro(cis-4-F)][Trp(βS-Me,4-F)][Aib]S[Trp(4-Cl)][d(αMeD)][Ala(pyrimidin-5-yl)]Q[Dab]G[dPro(4R-(4-pyridylmethyl))])
modifications: ring closure inferred
Turning to B8, the “MRC5 IC50” value was determined as 0.013 nM.

B9: SEQ ID NO 248 (peptide)
peptide: cyclo([Bip][4Pal][Phe(4-COOH)]G[Pro(cis-4-F)][Trp(βS-Me,4-F)][Aib]SW[d(αMeD)][dDab]Q[Dab]G[dPro(4R-(4-pyridylmethyl))])
modifications: ring closure inferred
B9: the “MRC5 IC50” value was 0.028 nM.

B10: SEQ ID NO 249 (peptide)
peptide: cyclo([Bip][4Pal][Phe(4-COOH)]G[Pro(cis-4-F)][Trp(βS-Me,4-F)][Aib]SW[d(αMeD)][dE]Q[Dab]G[dPro(4R-(4-pyridylmethyl))])
modifications: ring closure inferred
On to B10, for which the “MRC5 IC50” value amounted to 0.016 nM.

B11: SEQ ID NO 244 (peptide)
peptide: cyclo([Bip][4Pal][Phe(4-COOH)]G[Pro(cis-4-F)][Trp(βS-Me,4-F)][Aib]SW[d(αMeD)][dK]Q[Dap(CONH2)]G[dPro(4R-(4-pyridylmethyl))])
modifications: ring closure inferred
As to B11, the “MRC5 IC50” value was 0.03 nM.

B12: SEQ ID NO 259 (peptide)
peptide: cyclo([Bip(4'-COOH)][4Pal][Phe(4-COOH)]G[Pro(cis-4-F)][Trp(βS-Me,4-F)][Aib]SW[d(αMeF)]DQ[Dab]G[dPro(4R-(4-pyridylmethyl))])
modifications: ring closure inferred
For B12, the “MRC5 IC50” value stood at 0.014 nM.

B13: SEQ ID NO 246 (peptide)
peptide: cyclo([Bip][4Pal][Phe(4-COOH)]G[Pro(cis-4-F)][Trp(βS-Me,4-F)][Aib]SW[d(αMeD)][dDap]Q[Dap(CONH2)]G[dPro(4R-(4-pyridylmethyl))])
modifications: ring closure inferred
With B13, the “MRC5 IC50” value turned out to be 0.031 nM.

B14: SEQ ID NO 255 (peptide)
peptide: cyclo([Bip(4'-COOH)][4Pal][Phe(4-COOH)]G[Pro(cis-4-F)][Trp(βS-Me,4-F)][Aib]SW[d(αMeD)][ThrOMe]Q[Dab]G[dPro(4R-(4-pyridylmethyl))])
modifications: ring closure inferred
In the case of B14, the “MRC5 IC50” value was 0.011 nM.

B15: SEQ ID NO 247 (peptide)
peptide: cyclo([Bip][4Pal][Phe(4-COOH)]G[Pro(cis-4-F)][Trp(βS-Me,4-F)][Aib]SW[d(αMeD)][dDab]Q[Dap(CONH2)]G[dPro(4R-(4-pyridylmethyl))])
modifications: ring closure inferred
For B15, the “MRC5 IC50” value is 0.03 nM.

B16: SEQ ID NO 261 (peptide)
peptide: cyclo([Bip(4'-COOH)][4Pal][Phe(4-COOH)]G[Pro(cis-4-F)][Trp(βS-Me,4-F)][Aib]SW[daMeSMe][aThr]Q[Dab]G[dPro(4R-(4-pyridylmethyl))])
modifications: ring closure inferred
Turning to B16, the “MRC5 IC50” value is 0.017 nM.

B17: SEQ ID NO 252 (peptide)
peptide: cyclo([Bip(4'-COOH)][4Pal][Phe(4-COOH)]G[Pro(cis-4-F)][Trp(βS-Me,4-F)][Aib]S[Trp(4-F)][d(αMeD)][Ala(pyrimidin-5-yl)]Q[Dab]G[dPro(4R-(4-pyridylmethyl))])
modifications: ring closure inferred
As to B17, the “MRC5 IC50” value came to 0.013 nM.

B18: SEQ ID NO 242 (peptide)
peptide: cyclo([Bip(4'-COOH)][4Pal][Phe(4-COOH)]G[Pro(cis-4-F)][Trp(βS-Me,4-F)][Aib]SW[d(αMeD)][dS]Q[Dab]G[dPro(4R-(4-pyridylmethyl))])
modifications: ring closure inferred
With B18, the “MRC5 IC50” value amounted to 0.019 nM.

B19: SEQ ID NO 260 (peptide)
peptide: cyclo([Bip(4'-COOH)][4Pal][Phe(4-COOH)]G[Pro(cis-4-F)][Trp(βS-Me,4-F)][Aib]SW[daMeSMe][Ala(pyrimidin-5-yl)]Q[Dab]G[dPro(4R-(4-pyridylmethyl))])
modifications: ring closure inferred
On to B19, for which the “MRC5 IC50” value was 0.013 nM.

B20: SEQ ID NO 253 (peptide)
peptide: cyclo([Bip(4'-COOH)][4Pal][Phe(4-COOH)]G[Pro(cis-4-F)][Trp(βS-Me,4-F)][Aib]SW[d(αMeD)][Nva]Q[Dab]G[dPro(4R-(4-pyridylmethyl))])
modifications: ring closure inferred
For the molecule B20, the “MRC5 IC50” value worked out at 0.013 nM.
